# Experiments:
# Assay in all cases: cell-based or functional assay
# [1] = biological target: HIV-1 Env of pseudovirus WEAU_d15_410_787 (HIV-1)
# [2] = biological target: HIV-1 Env of pseudovirus CNE5 (HIV-1)
# [3] = biological target: HIV-1 Env of pseudovirus 0260.v5.c36 (HIV-1)
# [4] = biological target: HIV-1 Env of pseudovirus T250-4 (HIV-1)
# [5] = biological target: HIV-1 Env of pseudovirus TRO.11 (HIV-1)
# [6] = biological target: HIV-1 Env of pseudovirus Du156.12 (HIV-1)
# [7] = biological target: HIV-1 Env of pseudovirus 6240_08_TA5_4622 (HIV-1)
# [8] = biological target: HIV-1 Env of pseudovirus ZM214M.PL15 (HIV-1)
# [9] = biological target: HIV-1 Env of pseudovirus 7030102001E5(Rev-) (HIV-1)
# [10] = biological target: HIV-1 Env of pseudovirus ZM53M.PB12 (HIV-1)
# [11] = biological target: HIV-1 Env of pseudovirus CNE20 (HIV-1)
# [12] = biological target: HIV-1 Env of pseudovirus 62357_14_D3_4589 (HIV-1)
# [13] = biological target: HIV-1 Env of pseudovirus CNE53 (HIV-1)
# [14] = biological target: HIV-1 Env of pseudovirus 6535.3 (HIV-1)
# [15] = biological target: HIV-1 Env of pseudovirus SC422661.8 (HIV-1)
# [16] = biological target: HIV-1 Env of pseudovirus Q461.e2 (HIV-1)
# [17] = biological target: HIV-1 Env of pseudovirus Du172.17 (HIV-1)
# [18] = biological target: HIV-1 Env of pseudovirus Q769.d22 (HIV-1)
# [19] = biological target: HIV-1 Env of pseudovirus Q23.17 (HIV-1)
# [20] = biological target: HIV-1 Env of pseudovirus ZM249M.PL1 (HIV-1)
# [21] = biological target: HIV-1 Env of pseudovirus Ce2010_F5 (HIV-1)
# [22] = biological target: HIV-1 Env of pseudovirus ZM247v1(Rev-) (HIV-1)
# [23] = biological target: HIV-1 Env of pseudovirus 1012_11_TC21_3257 (HIV-1)
# [24] = biological target: HIV-1 Env of pseudovirus ZM135M.PL10a (HIV-1)
# [25] = biological target: HIV-1 Env of pseudovirus 249M B10 (HIV-1)
# [26] = biological target: HIV-1 Env of pseudovirus HIV-001428-2.42 (HIV-1)
# [27] = biological target: HIV-1 Env of pseudovirus CNE17 (HIV-1)
# [28] = biological target: HIV-1 Env of pseudovirus 1006_11_C3_1601 (HIV-1)
# [29] = biological target: HIV-1 Env of pseudovirus TRJO4551.58 (HIV-1)
# [30] = biological target: HIV-1 Env of pseudovirus ZM233M.PB6 (HIV-1)
# [31] = biological target: HIV-1 Env of pseudovirus CNE8 (HIV-1)
# [32] = biological target: HIV-1 Env of pseudovirus RHPA4259.7 (HIV-1)
# [33] = biological target: HIV-1 Env of pseudovirus Q259.d2.17 (HIV-1)
# [34] = biological target: HIV-1 Env of pseudovirus Ce0682_E4 (HIV-1)
# [35] = biological target: HIV-1 Env of pseudovirus HIV-16055-2.3 (HIV-1)
# [36] = biological target: HIV-1 Env of pseudovirus AC10.0.29 (HIV-1)
# [37] = biological target: HIV-1 Env of pseudovirus Ce2060_G9 (HIV-1)
substance,measurement,setting,value
PGT128 (antibody),neutralization IC50,[1],0.032 µg/mL
same,neutralization IC80,[1],0.153 µg/mL
same,IC50 (Titer in TZM.bl cells),[2],0.018 µg/mL
same,IC80 (Titer in TZM.bl cells),[2],0.253 µg/mL
same,neutralization IC50,[3],0.058 µg/mL
same,neutralization IC80,[3],0.162 µg/mL
same,neutralization IC50,[4],< 0.001 µg/mL
same,neutralization IC80,[4],0.007 µg/mL
same,neutralization IC50,[5],0.019 µg/mL
same,neutralization IC80,[5],0.045 µg/mL
same,neutralization IC50,[6],0.017 µg/mL
same,neutralization IC80,[6],0.046 µg/mL
same,neutralization IC50,[7],0.019 µg/mL
same,neutralization IC80,[7],0.055 µg/mL
same,neutralization IC50,[8],1.5 µg/mL
same,neutralization IC80,[8],29.4 µg/mL
same,neutralization IC50,[9],0.007 µg/mL
same,neutralization IC80,[9],0.022 µg/mL
same,neutralization IC50,[10],> 50 µg/mL
same,neutralization IC80,[10],> 50 µg/mL
same,neutralization IC50,[11],0.001 µg/mL
same,neutralization IC80,[11],0.004 µg/mL
same,neutralization IC50,[12],1.14 µg/mL
same,neutralization IC80,[12],> 50 µg/mL
same,neutralization IC50,[13],0.01 µg/mL
same,neutralization IC80,[13],0.049 µg/mL
same,neutralization IC50,[14],0.004 µg/mL
same,neutralization IC80,[14],0.016 µg/mL
same,neutralization IC50,[15],1.08 µg/mL
same,neutralization IC80,[15],18.4 µg/mL
same,neutralization IC50,[16],> 50 µg/mL
same,neutralization IC80,[16],> 50 µg/mL
same,neutralization IC50,[17],0.028 µg/mL
same,neutralization IC80,[17],0.08 µg/mL
same,neutralization IC50,[18],> 50 µg/mL
same,neutralization IC80,[18],> 50 µg/mL
same,neutralization IC50,[19],0.009 µg/mL
same,neutralization IC80,[19],0.024 µg/mL
same,neutralization IC50,[20],39.7 µg/mL
same,neutralization IC80,[20],> 50 µg/mL
same,neutralization IC50,[21],> 50 µg/mL
same,neutralization IC80,[21],> 50 µg/mL
same,neutralization IC50,[22],0.021 µg/mL
same,neutralization IC80,[22],0.081 µg/mL
same,neutralization IC50,[23],0.011 µg/mL
same,neutralization IC80,[23],0.033 µg/mL
same,neutralization IC50,[24],> 50 µg/mL
same,neutralization IC80,[24],> 50 µg/mL
same,neutralization IC50,[25],7.87 µg/mL
same,neutralization IC80,[25],> 50 µg/mL
same,neutralization IC50,[26],0.026 µg/mL
same,neutralization IC80,[26],0.095 µg/mL
same,neutralization IC50,[27],0.432 µg/mL
same,neutralization IC80,[27],1.99 µg/mL
same,neutralization IC50,[28],0.011 µg/mL
same,neutralization IC80,[28],0.04 µg/mL
same,neutralization IC50,[29],0.018 µg/mL
same,neutralization IC80,[29],0.041 µg/mL
same,neutralization IC50,[30],> 50 µg/mL
same,neutralization IC80,[30],> 50 µg/mL
same,IC50 (Titer in TZM.bl cells),[31],0.019 µg/mL
same,IC80 (Titer in TZM.bl cells),[31],0.052 µg/mL
same,neutralization IC50,[32],0.026 µg/mL
same,neutralization IC80,[32],0.109 µg/mL
same,neutralization IC50,[33],> 50 µg/mL
same,neutralization IC80,[33],> 50 µg/mL
same,neutralization IC50,[34],> 50 µg/mL
same,neutralization IC80,[34],> 50 µg/mL
same,neutralization IC50,[35],> 50 µg/mL
same,neutralization IC80,[35],> 50 µg/mL
same,neutralization IC50,[36],0.008 µg/mL
same,neutralization IC80,[36],0.018 µg/mL
same,neutralization IC50,[37],> 50 µg/mL
same,neutralization IC80,[37],> 50 µg/mL
PGT145 (antibody),neutralization IC50,[1],1.95 µg/mL
same,neutralization IC80,[1],31.5 µg/mL
same,IC50 (Titer in TZM.bl cells),[2],0.001 µg/mL
same,IC80 (Titer in TZM.bl cells),[2],0.013 µg/mL
same,neutralization IC50,[3],> 50 µg/mL
same,neutralization IC80,[3],> 50 µg/mL
same,neutralization IC50,[4],0.002 µg/mL
same,neutralization IC80,[4],0.039 µg/mL
same,neutralization IC50,[5],0.04 µg/mL
same,neutralization IC80,[5],0.118 µg/mL
same,neutralization IC50,[6],0.001 µg/mL
same,neutralization IC80,[6],0.018 µg/mL
same,neutralization IC50,[7],> 50 µg/mL
same,neutralization IC80,[7],> 50 µg/mL
same,neutralization IC50,[8],> 50 µg/mL
same,neutralization IC80,[8],> 50 µg/mL
same,neutralization IC50,[9],> 50 µg/mL
same,neutralization IC80,[9],> 50 µg/mL
same,neutralization IC50,[10],0.367 µg/mL
same,neutralization IC80,[10],11.8 µg/mL
same,neutralization IC50,[11],0.318 µg/mL
same,neutralization IC80,[11],6.97 µg/mL
same,neutralization IC50,[12],> 50 µg/mL
same,neutralization IC80,[12],> 50 µg/mL
same,neutralization IC50,[13],0.006 µg/mL
same,neutralization IC80,[13],0.084 µg/mL
same,neutralization IC50,[14],> 50 µg/mL
same,neutralization IC80,[14],> 50 µg/mL
same,neutralization IC50,[15],0.024 µg/mL
same,neutralization IC80,[15],0.082 µg/mL
same,neutralization IC50,[16],7.8 µg/mL
same,neutralization IC80,[16],> 50 µg/mL
same,neutralization IC50,[17],> 50 µg/mL
same,neutralization IC80,[17],> 50 µg/mL
same,neutralization IC50,[18],0.26 µg/mL
same,neutralization IC80,[18],25.5 µg/mL
same,neutralization IC50,[19],1.32 µg/mL
same,neutralization IC80,[19],> 50 µg/mL
same,neutralization IC50,[20],1.44 µg/mL
same,neutralization IC80,[20],> 50 µg/mL
same,neutralization IC50,[21],> 50 µg/mL
same,neutralization IC80,[21],> 50 µg/mL
same,neutralization IC50,[22],7.19 µg/mL
same,neutralization IC80,[22],> 50 µg/mL
same,neutralization IC50,[23],0.009 µg/mL
same,neutralization IC80,[23],0.025 µg/mL
same,neutralization IC50,[24],> 50 µg/mL
same,neutralization IC80,[24],> 50 µg/mL
same,neutralization IC50,[25],0.947 µg/mL
same,neutralization IC80,[25],41.3 µg/mL
same,neutralization IC50,[26],0.001 µg/mL
same,neutralization IC80,[26],0.083 µg/mL
same,neutralization IC50,[27],0.091 µg/mL
same,neutralization IC80,[27],1.16 µg/mL
same,neutralization IC50,[28],> 50 µg/mL
same,neutralization IC80,[28],> 50 µg/mL
same,neutralization IC50,[29],> 50 µg/mL
same,neutralization IC80,[29],> 50 µg/mL
same,neutralization IC50,[30],0.025 µg/mL
same,neutralization IC80,[30],0.68 µg/mL
same,IC50 (Titer in TZM.bl cells),[31],0.272 µg/mL
same,IC80 (Titer in TZM.bl cells),[31],2.24 µg/mL
same,neutralization IC50,[32],0.029 µg/mL
same,neutralization IC80,[32],0.095 µg/mL
same,neutralization IC50,[33],44.2 µg/mL
same,neutralization IC80,[33],> 50 µg/mL
same,neutralization IC50,[34],33.6 µg/mL
same,neutralization IC80,[34],> 50 µg/mL
same,neutralization IC50,[35],0.003 µg/mL
same,neutralization IC80,[35],0.051 µg/mL
same,neutralization IC50,[36],0.01 µg/mL
same,neutralization IC80,[36],0.025 µg/mL
same,neutralization IC50,[37],0.016 µg/mL
same,neutralization IC80,[37],0.205 µg/mL
